Here are results for 22 sequences from the supplement of paper PMC9170038.

The subject of this series is MS2 coat protein. The series can be described thus: apparent KD of MS2 coat protein; designed switch direction (-1 OFF switch, 1 ON switch): -1; higher = weaker reporter binding. The method in brief: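 For each design, the apparent KD is the median over clusters of curves fitted to normalised cluster fluorescence. Clusters held RNA switches with common flanks, transcribed on Illumina chips by stalled E. coli RNA polymerase. These were titrated with SNAP-549-labelled MS2 coat protein, doubling from 0.7 or 1.5 nM to 3 µM, without input, with 200 uM small-molecule ligand, or with an oligonucleotide input.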

The mark [1] stands for this setting: input ligand: microRNA oligo, concentration not stated.
The mark [2] stands for this setting: Eterna round: R95, input ligand: FMN 200 uM.
[3] abbreviates: Eterna round: R95, input ligand: microRNA oligo, concentration not stated.
Where [4] appears, read: Eterna round: R95, input ligand: none.

Consider “GCCGGAGCAGGAUAUCUAAUAUAUCACAUGAGGAUCACCCAUGUCCAGCGAAAGCUGGAGGGAGAAGGGCUCUGGC [Fiskers Ex 5 - 22] (Eterna round: R96, puzzle: Exclusion 5)”, for which the “apparent KD of MS2 coat protein” value (input ligand: FMN 200 uM) amounted to 47 nM, the “apparent KD of MS2 coat protein” value under setting [1] was 99.1 nM and the “apparent KD of MS2 coat protein” value (input ligand: none) came to 143 nM.

Take “GCCGGAGCAGGAUAUCUAAUAUAUCACAUGAGGAUCACCCAUGUCCAGCGAAAGCUGGAGGGAGAAGGGCUCUGGC [Fiskers Ex 5 - 22] (puzzle: Exclusion 5)”: the “apparent KD of MS2 coat protein” value by setting is: under setting [2], 59.7 nM; under setting [3], 133 nM; under setting [4], 132 nM.

Take “GCCGGAUUUGUGAGGAUAUACCUAUGGAUACAUAGGUAGAAGGCACAUGAGGAUCACCCAUGUACCUCUCCGGC [JL-BMX4-4.19 Eli mod] (Eterna round: R97, puzzle: Brourd's mod of Exclusion 4)”: the “apparent KD of MS2 coat protein” value (input ligand: FMN 200 uM) is 91.9 nM and the “apparent KD of MS2 coat protein” value (input ligand: none) turned out to be 19.5 nM.

On to “GCCGGCUGAGGAUAUACAUGAGGAUCACCCAUGUGCUUCAGCCGGGAGACCGGCAUUGGUAGAAGGCAGCCGGC [Mod of lroppy 21 - Jieux - Exclusion 3] (Eterna round: R97, puzzle: Exclusion 3)”, for which the “apparent KD of MS2 coat protein” value amounted to 14.5 nM (input ligand: FMN 200 uM) and 14.7 nM (input ligand: none).

“GCCGGUCAUGUAGGAUAUGGCCGGCGGUGCCGGCCAGAAGGACAUGAGGAUCACCCAUGUGCCGGCCUUUGGCCGGCACCCGGC (Eterna round: R96, puzzle: Exclusion NG 1)”: the “apparent KD of MS2 coat protein” value reads like this: (input ligand: FMN 200 uM) 10.3 nM; under setting [1], 8.76 nM; (input ligand: none) 17.2 nM.

In the case of “GCCGGUGAUCUAACCCGUAACAUGAGGAUCACCCAUGUAAGCUCGGGUUCUACAGAACCCGAUAUUAGCUCGUCAGU [Eternabot (Original) Solution 3] (Eterna round: R97, puzzle: Sensor, turn-off variant 1)”, the “apparent KD of MS2 coat protein” value is, setting by setting: (input ligand: FMN 200 uM) 599 nM; (input ligand: none) 894 nM.

In the case of “GCCGGUGUUGCGGAUAAGCUUUUCUGCUCGUUUUAUCGCACAUGAGGAUCACCCAUGUCAUCCGUCAGCAUGCAAAC [Aredardi] (puzzle: Sensor v3, turn-off variant 2)”, the “apparent KD of MS2 coat protein” value amounted to 26 nM under setting [2], 40.7 nM under setting [3] and 25.6 nM under setting [4].

As for “GCCGUGUCAGGAUAUCGGCGGCUAUAAGUGUACGUACCUUUCGAGAAGGGACAUGAGGAUCACCCAUGUAAAUC [Eternabot (L1) Solution 25] (Eterna round: R97, puzzle: Exclusion 4)”, the “apparent KD of MS2 coat protein” value (input ligand: FMN 200 uM) stood at 29.9 nM and the “apparent KD of MS2 coat protein” value (input ligand: none) was determined as 28.9 nM.

In the case of “GCCUAUGUGGAGGAUAUCGACUUCGAAAGAAGUCGAGAAGGCCACACAUGAGGAUCACCCAUGUGGUGCCAGGC [Omei Ex6 H13] (Eterna round: R97, puzzle: Exclusion 6)”, the “apparent KD of MS2 coat protein” value came to 336 nM (input ligand: FMN 200 uM) and 293 nM (input ligand: none).

Consider “GCCUCACAUGAGGAUCACCCAUGUCAGGAUAUACCCAUCCAGCGAAAUAAACGCUGUAGUAGAAGGGACAUGCA [Anlaat] (Eterna round: R97, puzzle: Exclusion 1)”, for which the “apparent KD of MS2 coat protein” value runs as follows: (input ligand: FMN 200 uM) 40.3 nM; (input ligand: none) 15.3 nM.

For “GCCUCACUUGAGGAUCACCCAAGUCAGGAUAUUCACUGAACUGCGUAGCAAUUCGGCCGAAGAAGGGAUUCGGG [Veala] (Eterna round: R97, puzzle: Exclusion 1)”, the “apparent KD of MS2 coat protein” value worked out at 75.2 nM (input ligand: FMN 200 uM) and 107 nM (input ligand: none).

“GCCUGUGCCCUAGGAUAUCGCCCAGCCAAUGGAUGAGAAGGAGGCGGGUGAAACAUGAGGAUCACCCAUGUAAACGCACAAGCA [Inusri] (Eterna round: R96, puzzle: Exclusion NG 1)”: the “apparent KD of MS2 coat protein” value (input ligand: FMN 200 uM) was determined as 102 nM, the “apparent KD of MS2 coat protein” value under setting [1] worked out at 14.5 nM and the “apparent KD of MS2 coat protein” value (input ligand: none) stood at 22.7 nM.

For the sequence “GCCUUAUCUGUCAGGAUAUACAAUAAAAUAAUUAAGUAGAAGGGACAUGAGGAUCACCCAUGUACAUUACAUUG [alecazam26] (Eterna round: R97, puzzle: Brourd's mod of Exclusion 4)”, the “apparent KD of MS2 coat protein” value runs as follows: (input ligand: FMN 200 uM) 67.4 nM; (input ligand: none) 17.9 nM.

As to “GCCUUGGGAGUCAGGAUAUACAAUAAAAUAAUUAAGUAGAAGGGACAUGAGGAUCACCCAUGUACAUUACAUUG [alecazam30] (Eterna round: R97, puzzle: Brourd's mod of Exclusion 4)”, the “apparent KD of MS2 coat protein” value amounted to 48 nM (input ligand: FMN 200 uM) and 13.3 nM (input ligand: none).

Turning to “GCGAAAGAAAACAGGUGAAACAUGAGGAUCACCCAUGUCCUCAUUUGCUCGUCUUAUAAGCUAUGCGAAAGCAUAGC [Mat - Sensor v3 - turn-off var 1 - Eli Mod - D52] (puzzle: Sensor v3, turn-off variant 1)”, the “apparent KD of MS2 coat protein” value runs as follows: under setting [2], 173 nM; under setting [3], 391 nM; under setting [4], 218 nM.

As for “GCGAAAGCAAGCAAGUGAAACAUGAGGAUCACCCAUGUCCUCAUUUGCUCGUCUUAUAAAAGCUAUCGAAAGAUAGC [Sensor 3, v1 - 1] (puzzle: Sensor v3, turn-off variant 1)”, the “apparent KD of MS2 coat protein” value is, setting by setting: under setting [2], 11.6 nM; under setting [3], 172 nM; under setting [4], 13.5 nM.

On to “GCGAAAGCAAGCAAGUGAAACAUGAGGAUCACCCAUGUCCUCAUUUGCUCGUCUUGUAAGCUAUGCGAAAGCAUAGC [Sensor 3, v1 - 5] (puzzle: Sensor v3, turn-off variant 1)”, for which the “apparent KD of MS2 coat protein” value was 12.1 nM under setting [2], 53.3 nM under setting [3] and 11.9 nM under setting [4].

Consider “GCGCAAACGCCAAAAGGCGAAACAACAUGAGGAUCACCCAUGUAGGAUAUCGAUUGCUUUGCAGUCGAGAAGGACAUAAUGCGC [JL ENG3 3.80 Mod 3] (Eterna round: R96, puzzle: Exclusion NG 3)”, for which the “apparent KD of MS2 coat protein” value under setting [1] stood at 11.9 nM.

Consider “GCGCAAAGCUAGGAUAUCCAGGGAUCUUCCCGCGGAGAAGGAGCCACAUGAGGAUCACCCAUGUGGUGAUCCUG [eternacac ex6r4 sub7] (Eterna round: R97, puzzle: Exclusion 6)”, for which the “apparent KD of MS2 coat protein” value was 14.9 nM (input ligand: FMN 200 uM) and 15.4 nM (input ligand: none).

With “GCGCACCUACCAAAAGGUAGGCCGACAUGAGGAUCACCCAUGUAGGAUAUCGAUUGCUUUGCAGUCGAGAAGGACAUGAUGCGC [JL ENG3 3.80 Mod 9] (Eterna round: R96, puzzle: Exclusion NG 3)”, the “apparent KD of MS2 coat protein” value reads like this: (input ligand: FMN 200 uM) 35.8 nM; under setting [1], 11.6 nM; (input ligand: none) 19 nM.

For “GCGCACUAAGUGAGGAUAUCGUUUAUUUAUAGGAUCGAGAAGGCACAUGAGGAUCACCCAUGUUAAACGUGCGC [JR_BMOE4_Sub100] (puzzle: Brourd's mod of Exclusion 4)”, under setting [3], the “apparent KD of MS2 coat protein” value is 15.7 nM.

In the case of “GCGCCAUCGUGAGAUGGCGUAAUUACAUGAGGAUCACCCAUGUAGGAUAUCGAUUGCUUUGCAGUCGAGAAGGACAUGAUAAUU [JL ENG3 3.80] (Eterna round: R96, puzzle: Exclusion NG 3)”, the “apparent KD of MS2 coat protein” value stood at 104 nM (input ligand: FMN 200 uM), 25 nM under setting [1] and 33.7 nM (input ligand: none).
